Experimental data published in article PMC2997501, “Different Residues on the Surface of the Methanothermobacter thermautotrophicus MCM Helicase Interact with Single- and Double-Stranded DNA” (Archaea, 2010).

What was measured:
Experiment in all cases: filter binding; 10 mM Mg2+, no ATP; better than wild-type; 25 mM Hepes-NaOH pH 7.5, 2 mM DTT, 10 mM MgCl2, 100 ug/ml BSA, 50 fmol 32P-DNA in 20 ul, 10/30/90 nM MCM monomer (25 nM for the ATP test), 60 C, 10 min; nitrocellulose filter washed with 20 mM Tris-HCl pH 7.5
Details in all cases: protein: recombinant; tags: C-terminal His6; chain copies: 6; label: 32P (T4 PNK, 5' end)
MCM PG210,211GA = target: T1, MCM PG210,211GA (Methanothermobacter thermautotrophicus, UniProt O27798 1-666, P210G;G211A)
T1 sequence: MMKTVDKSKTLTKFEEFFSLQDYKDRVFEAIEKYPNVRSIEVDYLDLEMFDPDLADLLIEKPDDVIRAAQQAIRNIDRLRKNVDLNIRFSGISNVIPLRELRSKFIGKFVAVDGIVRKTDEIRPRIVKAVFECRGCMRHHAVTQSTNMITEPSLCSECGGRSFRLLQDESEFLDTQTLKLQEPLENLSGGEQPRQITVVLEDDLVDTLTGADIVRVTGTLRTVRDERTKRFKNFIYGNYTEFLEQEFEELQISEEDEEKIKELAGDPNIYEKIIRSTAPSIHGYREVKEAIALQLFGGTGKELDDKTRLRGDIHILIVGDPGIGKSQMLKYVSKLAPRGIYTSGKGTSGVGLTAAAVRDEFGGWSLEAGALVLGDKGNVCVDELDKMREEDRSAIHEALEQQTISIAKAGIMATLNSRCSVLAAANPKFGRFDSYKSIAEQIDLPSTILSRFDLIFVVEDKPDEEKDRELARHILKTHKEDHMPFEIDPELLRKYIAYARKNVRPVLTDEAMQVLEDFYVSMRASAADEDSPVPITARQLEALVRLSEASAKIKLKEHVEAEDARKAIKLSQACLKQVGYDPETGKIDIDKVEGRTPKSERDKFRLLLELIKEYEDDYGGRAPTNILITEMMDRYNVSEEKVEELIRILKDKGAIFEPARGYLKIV

MCM P210G = target: T2, MCM P210G (Methanothermobacter thermautotrophicus, UniProt O27798 1-666, P210G)
T2 sequence: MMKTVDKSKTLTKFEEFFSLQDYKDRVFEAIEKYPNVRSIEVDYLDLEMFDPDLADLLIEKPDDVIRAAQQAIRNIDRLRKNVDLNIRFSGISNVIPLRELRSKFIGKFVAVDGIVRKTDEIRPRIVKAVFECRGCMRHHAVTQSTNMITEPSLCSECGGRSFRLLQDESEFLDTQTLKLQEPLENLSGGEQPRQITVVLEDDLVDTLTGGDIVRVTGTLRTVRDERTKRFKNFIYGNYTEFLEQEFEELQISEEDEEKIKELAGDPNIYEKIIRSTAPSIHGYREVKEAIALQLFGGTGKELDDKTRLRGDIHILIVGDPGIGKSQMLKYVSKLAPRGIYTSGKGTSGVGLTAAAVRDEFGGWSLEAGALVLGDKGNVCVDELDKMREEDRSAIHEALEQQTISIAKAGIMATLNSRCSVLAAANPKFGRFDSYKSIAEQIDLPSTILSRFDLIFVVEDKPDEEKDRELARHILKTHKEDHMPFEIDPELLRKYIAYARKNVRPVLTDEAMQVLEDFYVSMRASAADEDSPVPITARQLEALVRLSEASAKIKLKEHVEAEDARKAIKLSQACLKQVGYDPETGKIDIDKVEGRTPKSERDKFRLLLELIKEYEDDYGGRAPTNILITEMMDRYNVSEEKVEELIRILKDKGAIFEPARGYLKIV

MCM G211A = target: T3, MCM G211A (Methanothermobacter thermautotrophicus, UniProt O27798 1-666, G211A)
T3 sequence: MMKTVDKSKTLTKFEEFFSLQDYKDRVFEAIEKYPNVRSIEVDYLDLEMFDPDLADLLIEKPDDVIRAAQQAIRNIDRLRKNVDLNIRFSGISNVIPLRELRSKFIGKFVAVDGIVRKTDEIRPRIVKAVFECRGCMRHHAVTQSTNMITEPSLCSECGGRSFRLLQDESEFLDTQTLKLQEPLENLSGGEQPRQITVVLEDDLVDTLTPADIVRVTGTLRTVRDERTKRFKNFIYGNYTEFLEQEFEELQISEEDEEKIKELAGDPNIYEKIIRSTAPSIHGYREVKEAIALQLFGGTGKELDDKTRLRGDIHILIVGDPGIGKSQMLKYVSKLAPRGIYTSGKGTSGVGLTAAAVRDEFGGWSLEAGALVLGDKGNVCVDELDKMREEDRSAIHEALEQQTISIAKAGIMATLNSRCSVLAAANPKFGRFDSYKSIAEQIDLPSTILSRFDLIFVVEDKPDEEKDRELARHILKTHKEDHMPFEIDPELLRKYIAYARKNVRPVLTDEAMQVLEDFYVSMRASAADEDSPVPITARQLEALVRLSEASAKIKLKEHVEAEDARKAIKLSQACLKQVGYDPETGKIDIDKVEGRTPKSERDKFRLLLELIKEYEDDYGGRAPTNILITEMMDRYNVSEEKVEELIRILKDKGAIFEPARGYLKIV

Measured: binding result

GCAGATAACAGTTGTCCTGGAGAACGACCTGGTTGACACCCTCACACCC (ssDNA) [49-mer ssDNA]
binds: MCM PG210,211GA | MCM P210G | MCM G211A
